The record followed here is the supplement of paper PMC5998384.

The test system of series [1] is HeLa Kyoto. The experiment in a line: solubility in G1/S (NP-40 vs SDS abundance) (log2 ratio); higher = more soluble. Particulars: cell cycle stage: G1/S.
The subject of series [2] is HeLa Kyoto. The series is described as follows: melting temperature (median over replicates), in situ; higher = more thermally stable.
For series [3], the system named is HeLa Kyoto. The experiment in a line: solubility change mitosis vs G1/S (difference of NP-40 vs SDS log2 ratios) (log2 ratio difference); higher = more soluble in mitosis.
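Throughout, for melting temperature (median over replicates), in situ: HeLa Kyoto cells synchronized by double thymidine or nocodazole block, proteins quantified by TMT10plex mass spectrometry, three independent biological replicates.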
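Throughout, for solubility change mitosis vs G1/S (difference of NP-40 vs SDS log2 ratios): synchronized HeLa Kyoto cells (double thymidine block for G1/S, nocodazole release for mitosis), protein amounts in NP-40 versus SDS lysates quantified by mass spectrometry, three biological replicates.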
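Throughout, for solubility in G1/S (NP-40 vs SDS abundance): HeLa Kyoto cells arrested at G1/S by double thymidine block, proteins quantified by TMT10plex mass spectrometry in mild NP-40 versus SDS extracts, three biological replicates.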

With “MRGAGPSPRQSPRTLRPDPGPAMSFFRRKVKGKEQEKTSDVKSIKASISVHSPQKSTKNHALLEAAGPSHVAINAISANMDSFSSSRTATLKKQPSHMEAAHFGDLGRSCLDYQTQETKSSLSKTLEQVLHDTIVLPYFIQFMELRRMEHLVKFWLEAESFHSTTWSRIRAHSLNTVKQSSLAEPVSPSKKHETTASFLTDSLDKRLEDSGSAQLFMTHSEGIDLNNRTNSTQNHLLLSQECDSAHSLRLEMARAGTHQVSMETQESSSTLTVASRNSPASPLKELSGKLMKSIEQDAVNTFTKYISPDAAKPIPITEAMRNDIIARICGEDGQVDPNCFVLAQSIVFSAMEQEHFSEFLRSHHFCKYQIEVLTSGTVYLADILFCESALFYFSEYMEKEDAVNILQFWLAADNFQSQLAAKKGQYDGQEAQNDAMILYDKYFSLQATHPLGFDDVVRLEIESNICREGGPLPNCFTTPLRQAWTTMEKVFLPGFLSSNLYYKYLNDLIHSVRGDEFLGGNVSLTAPGSVGPPDESHPGSSDSSASQSSVKKASIKILKNFDEAIIVDAASLDPESLYQRTYAGKMTFGRVSDLGQFIRESEPEPDVRKSKGSMFSQAMKKWVQGNTDEAQEELAWKIAKMIVSDIMQQAQYDQPLEKSTKL [AKAP10]”, in series [1], the “solubility in G1/S (log2)” value is 0.00407. In addition, the melting temperature in series [2] (cell cycle stage: mitosis) was 49.8 °C. In series [3], the “solubility change mitosis (log2)” value is -0.166.
Turning to “MRLAGPLRIVVLVVSVGVTWIVVSILLGGPGSGFPRIQQLFTSPESSVTAAPRARKYKCGLPQPCPEEHLAFRVVSGAANVIGPKICLEDKMLMSSVKDNVGRGLNIALVNGVSGELIEARAFDMWAGDVNDLLKFIRPLHEGTLVFVASYDDPATKMNEETRKLFSELGSRNAKELAFRDSWVFVGAKGVQNKSPFEQHVKNSKHSNKYEGWPEALEMEGCIPRRSTAS [FAM3A]”, the “solubility in G1/S (log2)” value in series [1] was -0.0403. Further, the melting temperature in series [2] (cell cycle stage: G1/S) was 51.9 °C; in series [2] (cell cycle stage: mitosis) it was 52.8 °C. Besides, in series [3], the “solubility change mitosis (log2)” value is -0.0146.
Regarding “MRMSDTVTVKDETATMKDLEAEVKDTTRVENLIKSENYGKILVEKNEHCIENNIDLQRPLQSFGQTGKRSKSSSKLKLVRSLAVCEESPPPPAPEISQENQEKIQIQLTQSFEKEEKPSKDEAEKEKASDKLPRKMLSRDSSQEYTDSTGIDLHEFLVNTLKNNPRDRMMLLKLEQEILDFIGNNESPRKKFPPMTSYHRMLLHRVAAYFGLDHNVDQSGKSVIVNKTSNTRIPDQKFNEHIKDDKGEDFQKRYILKRDNSSFDKDDNQMRIRLKDDRRSKSIEEREEEYQRARDRIFSQDSLCSQENYIIDKRLQDEDASSTQQRRQIFRVNKDASGRSTNSHQSSTENELKYSEPRPWSSTDSDSSLRNLKPAVTKASSFSGISVLTRGDSSGSSKSIGRLSKTGSESSGSVGSSTGSLSHIQQPLPGTALSQSSHGAPVVYPTVSTHSSLSFDGGLNGQVASPSTSFFLLPLEAAGIPPGSILINPQTGQPFINPDGSPVVYNPPMTQQPVRSQVPGPPQPPLPAPPQQPAANHIFSQDNLGSQFSHMSLARQPSADGSDPHAAMFQSTVVLQSPQQSGYIMTAAPPPHPPPPPPPPPPPPPLPPGQPVPTAGYPASGHPVSQPVLQQQGYIQQPSPQMPACYCAPGHYHSSQPQYRPVPSVHYNSHLNQPLPQPAQQTGYQVIPNQQQNYQGIVGVQQPQSQSLVSGQPNSIGNQIQGVVIPYTSVPTYQVSLPQGSQGIPHQTYQQPVMFPNQSNQGSMPTTGMPVYYSVIPPGQQNNLSSSVGYLQHPGSEQVQFPRTTSPCSSQQLQGHQCTAGPPPPPGGGMVMMQLSVPNNPQSCAHSPPQWKQNKYYCDHQRGQKCVEFSSVDNIVQHSPQLSSPIISPAQSPAPAQLSTLKTVRPSGPPLSIMPQFSRPFVPGQGDSRYPLLGQPLQYNPPAVLHGHIPNQQGQPGSRHGNRGRRQAKKAASTDLGAGETVVGKVLEITELPDGITRMEAEKLFGELFKIGAKIRWLRDPQSQPRRHPLCCGSGDNTANPERSKPSDLASTYTVLATFPSISAAQNALKKQINSVNKFKLRTSKKHYDFHILERASSQ [R3HDM1]”, in series [1], the “solubility in G1/S (log2)” value came to 0.189. Moreover, the melting temperature in series [2] (cell cycle stage: G1/S) is 52.3 °C; in series [2] (cell cycle stage: mitosis), 50.9 °C. The “solubility change mitosis (log2)” value in series [3] was -0.239.
Consider “MRRSAAPSQLQGNSFKKPKFIPPGRSNPGLNEEITKLNPDIKLFEGVAINNTFLPSQNDLRICSLNLPSEESTREINNRDNCSGKYCFEAPTLATLDPPHTVHSAPKEVAVSKEQEEKSDSLVKYFSVVWCKPSKKKHKKWEGDAVLIVKGKSFILKNLEGKDIGRGIGYKFKELEKIEEGQTLMICGKEIEVMGVISPDDFSSGRCFQLGGGSTAISHSSQVARKCFSNPFKSVCKPSSKENRQNDFQNCKPRHDPYTPNSLVMPRPDKNHQWVFNKNCFPLVDVVIDPYLVYHLRPHQKEGIIFLYECVMGMRMNGRCGAILADEMGLGKTLQCISLIWTLQCQGPYGGKPVIKKTLIVTPGSLVNNWKKEFQKWLGSERIKIFTVDQDHKVEEFIKSIFYSVLIISYEMLLRSLDQIKNIKFDLLICDEGHRLKNSAIKTTTALISLSCEKRIILTGTPIQNDLQEFFALIDFVNPGILGSLSSYRKIYEEPIILSREPSASEEEKELGERRAAELTCLTGLFILRRTQEIINKYLPPKIENVVFCRPGALQIELYRKLLNSQVVRFCLQGLLENSPHLICIGALKKLCNHPCLLFNSIKEKECSSTCDKNEEKSLYKGLLSVFPADYNPLLFTEKESGKLQVLSKLLAVIHELRPTEKVVLVSNYTQTLNILQEVCKRHGYAYTRLDGQTPISQRQQIVDGFNSQHSSFFIFLLSSKAGGVGLNLIGGSHLILYDIDWNPATDIQAMSRVWRDGQKYPVHIYRLLTTGTIEEKIYQRQISKQGLCGAVVDLTKTSEHIQFSVEELKNLFTLHESSDCVTHDLLDCECTGEEVHTGDSLEKFIVSRDCQLGPHHQKSNSLKPLSMSQLKQWKHFSGDHLNLTDPFLERITENVSFIFQNITTQATGT [RAD54B]”, for which, in series [1], the “solubility in G1/S (log2)” value is -0.106. For the same sequence, the melting temperature was 46.5 °C in series [2] (cell cycle stage: G1/S) and 48.1 °C in series [2] (cell cycle stage: mitosis). The “solubility change mitosis (log2)” value in series [3] was -0.0255.
“MSAKPEVSLVREASRQIVAGGSAGLVEICLMHPLDVVKTRFQIQRCATDPNSYKSLVDSFRMIFQMEGLFGFYKGILPPILAETPKRAVKFFTFEQYKKLLGYVSLSPALTFAIAGLGSGLTEAIVVNPFEVVKVGLQANRNTFAEQPSTVGYARQIIKKEGWGLQGLNKGLTATLGRHGVFNMVYFGFYYNVKNMIPVNKDPILEFWRKFGIGLLSGTIASVINIPFDVAKSRIQGPQPVPGEIKYRTCFKTMATVYQEEGILALYKGLLPKIMRLGPGGAVMLLVYEYTYSWLQENW [SLC25A21]”: the “solubility in G1/S (log2)” value in series [1] is -0.251. The melting temperature in series [2] (cell cycle stage: G1/S) worked out at 56.9 °C; in series [2] (cell cycle stage: mitosis), 55.7 °C. Also, the “solubility change mitosis (log2)” value in series [3] is -0.00648.
Consider “MSATSVDTQRTKGQDNKVQNGSLHQKDTVHDNDFEPYLTGQSNQSNSYPSMSDPYLSSYYPPSIGFPYSLNEAPWSTAGDPPIPYLTTYGQLSNGDHHFMHDAVFGQPGGLGNNIYQHRFNFFPENPAFSAWGTSGSQGQQTQSSAYGSSYTYPPSSLGGTVVDGQPGFHSDTLSKAPGMNSLEQGMVGLKIGDVSSSAVKTVGSVVSSVALTGVLSGNGGTNVNMPVSKPTSWAAIASKPAKPQPKMKTKSGPVMGGGLPPPPIKHNMDIGTWDNKGPVPKAPVPQQAPSPQAAPQPQQVAQPLPAQPPALAQPQYQSPQQPPQTRWVAPRNRNAAFGQSGGAGSDSNSPGNVQPNSAPSVESHPVLEKLKAAHSYNPKEFEWNLKSGRVFIIKSYSEDDIHRSIKYSIWCSTEHGNKRLDSAFRCMSSKGPVYLLFSVNGSGHFCGVAEMKSPVDYGTSAGVWSQDKWKGKFDVQWIFVKDVPNNQLRHIRLENNDNKPVTNSRDTQEVPLEKAKQVLKIISSYKHTTSIFDDFAHYEKRQEEEEVVRKERQSRNKQ [YTHDF1]”, for which the “solubility in G1/S (log2)” value in series [1] is 0.14. This sequence also showed a melting temperature in series [2] (cell cycle stage: mitosis) of 47.8 °C. Also, the “solubility change mitosis (log2)” value in series [3] is -0.0272.
As to “MSEAYFRVESGALGPEENFLSLDDILMSHEKLPVRTETAMPRLGAFFLERSAGAETDNAVPQGSKLELPLWLAKGLFDNKRRILSVELPKIYQEGWRTVFSADPNVVDLHKMGPHFYGFGSQLLHFDSPENADISQSLLQTFIGRFRRIMDSSQNAYNEDTSALVARLDEMERGLFQTGQKGLNDFQCWEKGQASQITASNLVQNYKKRKFTDMED [GINS3]”, the “solubility in G1/S (log2)” value in series [1] worked out at 0.471. For the same sequence, the melting temperature in series [2] (cell cycle stage: G1/S) and in series [2] (cell cycle stage: mitosis) was 51.7 °C in each case. For the same sequence, the “solubility change mitosis (log2)” value in series [3] is 0.225.
Turning to “MSEEEQGSGTTTGCGLPSIEQMLAANPGKTPISLLQEYGTRIGKTPVYDLLKAEGQAHQPNFTFRVTVGDTSCTGQGPSKKAAKHKAAEVALKHLKGGSMLEPALEDSSSFSPLDSSLPEDIPVFTAAAAATPVPSVVLTRSPPMELQPPVSPQQSECNPVGALQELVVQKGWRLPEYTVTQESGPAHRKEFTMTCRVERFIEIGSGTSKKLAKRNAAAKMLLRVHTVPLDARDGNEVEPDDDHFSIGVGSRLDGLRNRGPGCTWDSLRNSVGEKILSLRSCSLGSLGALGPACCRVLSELSEEQAFHVSYLDIEELSLSGLCQCLVELSTQPATVCHGSATTREAARGEAARRALQYLKIMAGSK [TARBP2]”, the “solubility in G1/S (log2)” value in series [1] is 0.152. Moreover, in series [2] (cell cycle stage: mitosis), the melting temperature came out at 51.7 °C. The “solubility change mitosis (log2)” value in series [3] worked out at 0.129.
In the case of “MSGFNFGGTGAPTGGFTFGTAKTATTTPATGFSFSTSGTGGFNFGAPFQPATSTPSTGLFSLATQTPATQTTGFTFGTATLASGGTGFSLGIGASKLNLSNTAATPAMANPSGFGLGSSNLTNAISSTVTSSQGTAPTGFVFGPSTTSVAPATTSGGFSFTGGSTAQPSGFNIGSAGNSAQPTAPATLPFTPATPAATTAGATQPAAPTPTATITSTGPSLFASIATAPTSSATTGLSLCTPVTTAGAPTAGTQGFSLKAPGAASGTSTTTSTAATATATTTSSSSTTGFALNLKPLAPAGIPSNTAAAVTAPPGPGAAAGAAASSAMTYAQLESLINKWSLELEDQERHFLQQATQVNAWDRTLIENGEKITSLHREVEKVKLDQKRLDQELDFILSQQKELEDLLSPLEELVKEQSGTIYLQHADEEREKTYKLAENIDAQLKRMAQDLKDIIEHLNTSGAPADTSDPLQQICKILNAHMDSLQWIDQNSALLQRKVEEVTKVCEGRRKEQERSFRITFD [NUP62]”, the “solubility in G1/S (log2)” value in series [1] stood at 0.32. In addition, the melting temperature in series [2] (cell cycle stage: G1/S) was 51.8 °C; in series [2] (cell cycle stage: mitosis), 51.7 °C. Further, in series [3], the “solubility change mitosis (log2)” value was 0.107.
The corresponding values for “MSQATKRKHVVKEVLGEHIVPSDQQQIVRVLRTPGNNLHEVETAQGQRFLVSMPSKYRKNIWIKRGDFLIVDPIEEGEKVKAEISFVLCKDHVRSLQKEGFWPEAFSEVAEKHNNRNRQTQPELPAEPQLSGEESSSEDDSDLFVNTNRRQYHESEEESEEEEAA [EIF1AD]” are 0.37, 53.5 °C, 53.3 °C and -0.0155.
Consider “MSSRSTKDLIKSKWGSKPSNSKSETTLEKLKGEIAHLKTSVDEITSGKGKLTDKERHRLLEKIRVLEAEKEKNAYQLTEKDKEIQRLRDQLKARYSTTTLLEQLEETTREGERREQVLKALSEEKDVLKQQLSAATSRIAELESKTNTLRLSQTVAPNCFNSSINNIHEMEIQLKDALEKNQQWLVYDQQREVYVKGLLAKIFELEKKTETAAHSLPQQTKKPESEGYLQEEKQKCYNDLLASAKKDLEVERQTITQLSFELSEFRRKYEETQKEVHNLNQLLYSQRRADVQHLEDDRHKTEKIQKLREENDIARGKLEEEKKRSEELLSQVQFLYTSLLKQQEEQTRVALLEQQMQACTLDFENEKLDRQHVQHQLHVILKELRKARNQITQLESLKQLHEFAITEPLVTFQGETENREKVAASPKSPTAALNESLVECPKCNIQYPATEHRDLLVHVEYCSK [CEP55]”, for which the “solubility in G1/S (log2)” value in series [1] amounted to 0.417. Moreover, the figures for the melting temperature in series [2] (cell cycle stage: G1/S) and in series [2] (cell cycle stage: mitosis) were 48.1 °C and 48.9 °C, respectively. For the same sequence, in series [3], the “solubility change mitosis (log2)” value stood at 0.238.
